# Source: patent US20250304936A1 (KYUNGPOOK NATIONAL UNIVERSITY INDUSTRY ACADEMIC COOPERATION …, published 2025)
# B1: recombinant His-tagged GH117A α-neoagarobiose hydrolase (α-NABH) of Cellvibrio sp. KY-GH-1 (enzyme)
# chain: MGDLPEKKLSKASLRAIERGYDQKNADWVFEFDVKPLGGDFAYQEGVIRRDPSAVIFVDGLYHVWYTKGEGETVGFGSANPEDKVFPWDKTEVWHATSSDGWDWKEQGAAIVAGAPGSYDDRAVFTPEVLAHEGRYYLVYQTVKAPYLNRTKECIALASADSPYGPWVKSPAPILTPADNGVWDGDEDNRFNCKIRGDFDSHKVHDPCLMFYQNKFYLYYKGEIMGERMNFGGREIKHGVAIADKIEGPYVKSEFNPITNSGHEVVVWHVNGGIASLLTTDGPEKNTCQWSPDGINFDIMAHIKGAPEALGLYRDPAADIQDPMAGLAWGLCHKYDSSWNWNYICRFKTRRQILDPGTFQNVAS
# notes: The entry under measurements means that the chain associates with itself; also called GH117A α-NABH; GH117 A α-NABH; not shown: C-terminal 6x His tag from vector pET-30a (cloned NdeI/XhoI)
# Target: the molecule itself
# Experiment: size exclusion chromatography (Superdex 200 Increase 10/300 GL); self-association of the chain: 92.1 kDa measured against 40.9 kDa calculated for the monomer
# Procedure: (A) Molecular sieve chromatography profiling of purified GH117A α-NABH was performed using a Superdex 200 Increase 10/300 GL column equilibrated with 40 mM Tris-HCl (pH 8.0) containing 150 mM NaCl. At this time, a protein solution containing 500 μg GH117A α-NABH was injected into the column, and the column was eluted at 4° C. at a flow rate of 0.3 mL/min, and the protein elution profile was monitored by measuring absorbance at 280 nm. […]
# Molecular sieve chromatography was performed using a Superdex 200 Increase 10/300 GL column (GE Healthcare) equilibrated with 40 mM tris-HCl (pH 8.0) and 150 mM NaCl. Purified GH117A α-NABH (0.5 mg/0.5 mL) was injected into the column, and molecular sieve chromatography was performed under conditions of 4° C. and a flow rate of 0.3 mL/min, and protein elution was measured at a wavelength of 280 nm. For the column, a standard curve of retention volume versus protein molecular weight was obtained using size markers such as ferritin (440 kDa), aldolase (158 kDa), ovalbumin (44 kDa), and ribonuclease A (13.7 kDa), and molecular weight of the purified GH117A α-NABH was measured using the curve.
protein,measurement,value
B1,binding result,binds
